Ends that are not written are not given here.
How the values were obtained:
Test in all cases: ELISA on biotinylated peptides of the alanine library on streptavidin plates
[1] = target: T1, peptide A16 of the second library (Aβ12-20 with aa 16 changed to alanine) (also: biotinylated, position not given here)
T1 peptide: VHHQALVFF
Description: (§1) One library comprised a total of 33 biotinylated peptides covering the complete amino acid (aa) sequence of Aβ1-42 (produced by Mimotopes and purchased from ANAWA Trading SA), the second library contains biotinylated peptides using peptide 12 (aa12-20 of Aβ) from the first peptide library and substituting each as in the sequence by an alanine (see table 3 below), and the third library contains biotinylated peptides 13, 14, or 15 (aa 13-21, 14-22 or 15-23 of Aβ) and substituting in each case the last amino acids to an alanine or to a glycine for as 21 which is already an alanine (see table 4 below). A biotinylated complete Aβ1-42 peptide was used as positive control (Bachem). Epitope mapping was done according to the manufacturer's (Mimotopes) instructions. Briefly, Streptavidin coated plates (NUNC) were blocked with 0.1% BSA in PBS overnight at 4° C. After washing with PBS-0.05% Tween 20, plates were coated for 1 hour at RT with the different peptides from the library, diluted in 0.1% BSA, 0.1% Sodium Azide in PBS to a final concentration of 10 μM. […] Plates were washed again and incubated with alkaline phosphatase conjugated goat anti human IgG for 1 h at RT. After final washing, plates were incubated with phosphatase substrate (pNPP) and read at 405 nm using an ELISA plate reader.

[2] = target: T2, peptide A17 of the second library (Aβ12-20 with aa 17 changed to alanine) (also: biotinylated, position not given here)
T2 peptide: VHHQKAVFF
Description: as §1

[3] = target: T3, peptide A20 of the second library (Aβ12-20 with aa 20 changed to alanine) (also: biotinylated, position not given here)
T3 peptide: VHHQKLVFA
Description: as §1

[4] = target: T4, peptide A19 of the second library (Aβ12-20 with aa 19 changed to alanine) (also: biotinylated, position not given here)
T4 peptide: VHHQKLVAF
Description: as §1

binding result [1]: no binding (tested: 200 ng/ml)
binding result [2]: no binding (tested: 200 ng/ml)
binding result [3]: no binding (tested: 200 ng/ml)
binding result [4]: no binding (tested: 200 ng/ml)
B1: humanized anti-human amyloid beta monoclonal antibody hC2 (antibody, human IgG4 S228P, kappa)
heavy: not shown
light: DIVMTQSPLSLPVTPGEPASISCRSSQSLVYSNGDTYLHWYLQKPGQSPQLLIYKVSNRFSGVPDRFSGSGSGTDFTLKISRVEAEDVGVYYCSQSTHVPWTFGQGTKVEIKRTVAAPSVFIFPPSDEQLKSGTASVVCLLNNFYPREAKVQWKVDNALQSGNSQESVTEQDSKDSTYSLSSTLTLSKADYEKHKVYACEVTHQGLSSPVTKSFNRGEC
notes: also called humanized antibody C2; humanized C2

Source: patent US20160168234A1 (published 2016)
